From patent publication US20230067757A1 (NOVAROCK BIOTHERAPEUTICS, published 2023) come the findings set out here.

Read-outs that look alike come from different tables or passages of the source.

Assay [1] concerns the target T1, human claudin 18 isoform 2 (claudin 18.2) (human).
T1 construct: Recombinant on transfected CHO cells (CHO-CLDN18.2) or endogenous on tumor cell lines PATU8988S, NUGC-4, KATOIII; the cell line is named under assay; also called CLDN18.2
The experiment in a line: imaging, PATU8988S cells (endogenous CLDN18.2); ++ = EC50 between 20 nM and 100 nM.

Assay [2] concerns the target T1, human claudin 18 isoform 2 (claudin …). The experiment in a line: immunofluorescence imaging, CHO-CLDN18.2 cells, serial dilution. How it is done:
(§1) The specific cellular binding affinity of anti-Claudin18.2 antibodies was tested on CHO-CLDN18.2 (transfected CHO cell expressing recombinant human CLDN18.2) and CHO-CLDN18.1 (transfected CHO cell expressing recombinant human CLDN18.1) cells. The cells were plated in complete media containing F12 with 10% FBS, then incubated overnight at 37° C., anti-Claudin18.2 antibodies were serial diluted and added to the assay plates, incubated at 4° C. for 2 hours, followed by fixing cells and further staining the cells for 30 minutes with Alexa Fluor® 488 Goat Anti-Human IgG (H+L) secondary antibody, invitrogen Cat #A-11013 for detection. The binding was assessed by imaging the cells and quantifying the fluorescence intensity using a Biotek Cytation.

Assay [3] shares this target. The experiment in a line: cell-based or functional assay.
The target in assay [4] is T2, human claudin 18 isoform 1 (claudin 18.1) (human, UniProt P56856 1-261).
T2 construct: Recombinant on transfected CHO cells (CHO-CLDN18.1); also called CLDN18.1
The assay can be described thus: imaging, CHO-CLDN18.1 cells, single concentration (FIG. 3A). How it is done:
as §1

For assay [5], the target named is T1, human claudin 18 isoform 2 (claudin …). The assay can be described thus: cell-based or functional assay. The source holds these as a separate data set.
The target is the same in assay [6]. The experiment in a line: cell-based or functional assay. The source holds these as a separate data set.
The target is the same in assay [7]. The assay can be described thus: imaging, PATU8988S cells (endogenous CLDN18.2); ++++ = EC50 less than 2 nM. How it is done: (§2) Tumor cells were plated in complete media containing RPMI1640 with +10% FBS, then incubated overnight at 37° C., Claudin18.2 antibodies were serial diluted and added to the assay plates, incubated at 4° C. for 2 hours, followed by fixing cells and further staining the cells for 30 minutes with Alexa Fluor® 488 Goat Anti-Human IgG (H+L) secondary antibody (invitrogen Cat #A-11013) for detection. The binding was assessed by imaging the cells and quantifying the fluorescence intensity using a Biotek Cytation.

Assay [8] deals with T2, human claudin 18 isoform 1 (claudin …). The experiment in a line: immunofluorescence imaging on CHO cells expressing human CLDN18.1, antibody at 10 µg/ml. How it is done: as §1
Assay [9] concerns the target T1, human claudin 18 isoform 2 (claudin …). The assay can be described thus: imaging, PATU8988S cells (endogenous CLDN18.2); ++ = EC50 between 20 nM and 100 nM. How it is done:
as §2
This is another data set of the same source.

Assay [10] has the same target. The experiment in a line: imaging, PATU8988S cells (endogenous CLDN18.2); +++ = EC50 between 2 nM and 20 nM. How it is done:
as §2

The target is the same in assay [11]. The assay can be described thus: imaging, PATU8988S cells (endogenous CLDN18.2); ++++ = EC50 less than 2 nM. This is another data set of the same source.
In assay [12] the target is T2, human claudin 18 isoform 1 (claudin …). The assay can be described thus: imaging, CHO-CLDN18.1 cells, dose titration. How it is done: as §1

T2 sequence (P56856 whole entry, canonical isoform): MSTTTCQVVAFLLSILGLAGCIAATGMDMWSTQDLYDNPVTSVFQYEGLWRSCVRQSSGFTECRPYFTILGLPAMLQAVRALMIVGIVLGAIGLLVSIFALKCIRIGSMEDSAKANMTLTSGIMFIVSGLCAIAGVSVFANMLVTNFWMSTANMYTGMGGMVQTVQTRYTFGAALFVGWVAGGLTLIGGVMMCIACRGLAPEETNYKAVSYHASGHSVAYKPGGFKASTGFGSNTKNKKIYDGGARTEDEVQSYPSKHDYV

B1: Ms14 (antibody, V domains shown)
VH: EVQLQQSGPELVKPGASVKMSCKASGYTFTRYIIHWVKQKPGQGLEWIGYFNPYNDDSKNNEKFKGKATLTSDKSSSTAYMEISSLTSEDSAVYYCAKLRQERIAYWGQGTLVTVSA
VL: DIQMNQSPSSLSASLGDTITITCHVSQNIDVWLSWYQQKPGNIPKLLIYKASNLHTGVPSRFSGSGSGTGFTLTISSLQPEDIATYYCQQGQSYPLTFGAGTKLELK
The EC50 is the concentration giving half of the maximal effect. High values mean weaker potency, low ones greater potency. For B1, the EC50 in [1] is 20 to 100 nM; in [2], 1.1 nM. The “endocytosis derived cell toxicity EC50, CHO-18.2 cells (anti-IgG Fc-MMAF co-internalization)” value (from here on “endocytosis derived cell toxicity EC50”) in assay [3] amounted to 1.02 nM. Also, the binding result in assay [4] is “no binding (tested: 10 µg/ml)”.

B2: Hu-10 (antibody, V domains shown)
VH: EVQLSESGGALVQPGESLRLSCAASGFTFSSYAMTWVRQAPGKGLEWVSSLSGSGRSTYYAASIKGRFTISRDNSKNTLYLQMSSLRAEDTAIYYCAKSLSYYHYYFDYWGQGTLVTVSS
VL: DIQLTQSPSFLSASVGDRVPITCRASQDISNYLAWYQQKPGKAPKLLIYSASTLQSGVPSRFSGSGSGTEFTLTISSLQPEDFASYHCQQVKTYPLTFGGGTKVEIK
With B2, the half-maximal effective concentration (EC50) is 1.5 nM in assay [2] and under 2 nM in assay [7]. Also, in [5], the “ADCC EC50, CHO-18.2 target cells (mouse FcγRIV reporter bioluminescence)” value (from here on “ADCC EC50, CHO-18.2 target cells”) worked out at 1.25 nM. Moreover, the “endocytosis derived cell toxicity EC50” value in assay [6] was 0.85 nM. In addition, in assay [8], the binding result is listed as “no binding (tested: 10 µg/ml)”.

B3: Hu-9 (antibody, V domains shown)
VH: EVQLLESGGGLVQPGGSLRLSCAASGFTFSSFAMTWVRQAPGKGLEWVSSLSGSGRSTYYAASMKGRFTISRDNSKNTLYLQMNSLRAEDTAIYYCAKSLSYYHYYFDYWGQGTLVTVTS
VL: DIQLTQSPSFLSASVGDRVPITCRASQGISNFLAWYQQKPGKAPELLIHSASTLQSGVPSRFSGSGSGTEFTLTISNLQPQDFATYYCQQVNSYPLTFGGGTKVEIK
Take B3: the concentration giving a half-maximal response (EC50) in assay [2] is 1.1 nM; in assay [7] it was under 2 nM. Besides, the “ADCC EC50, CHO-18.2 target cells” value in assay [5] was found to be 1.1 nM. The “endocytosis derived cell toxicity EC50” value in assay [6] turned out to be 0.85 nM. In addition, the binding result in assay [8] was “no binding (tested: 10 µg/ml)”.

B4: Hu-4 (antibody, V domains shown)
VH: QVQLVESGGGVVQPGRSLRLSCAASGFTFSFYGMHWVRQAPGKGLEWVAVIWYDGSNKNYVDSVKGRFTISRDNSKNTLYLQMNSLRAEDTAVYYCARRNYDILTGRDYYGMDVWGQGTTVTVSS
VL: QTVVTQEPSFSVSPGGTVTLTCGLNSGSVSTSYYPSWYQQTPGQAPRTLIYSTNTRSSGVPDRFSGSILGNKAALTITGAQADDDSDYYCVLYMGSGIWVFGGGTKLTVL
On to B4, for which the values for the EC50 in assay [2] and in assay [9] were 5.2 nM and 20 to 100 nM, respectively. In addition, the “ADCC EC50, CHO-18.2 target cells” value in [5] was determined as 2.39 nM. The “endocytosis derived cell toxicity EC50” value in assay [6] is 1.55 nM. The binding result in assay [8] was “no binding (tested: 10 µg/ml)”.

B5: Hu-2 (antibody, V domains shown)
VH: QLRLQESGPGLVKPSETLSLTCAVSGGSISSSRSYWGWIRQPPGKGLELIGSIYYSGSTYYNPSLKSRVTISVDTSKNQFSLKLTSVTATDTAVYYCARQTLRYFDWLSPFDYWGQGTLVTVSS
VL: EIVMTQSPATLSLSPGERATLSCRASQSVRSNYLSWYQQKPGQAPRLLIYGTSTRATGIPARFSGSGSGTDFTLTISSLQPEDFAVYFCQQDYNLPITFGQGTRLEIK
For B5, the figures for the concentration for a half-maximal effect (EC50) in assay [2] and in assay [10] were 1.5 nM and 2 to 20 nM, respectively. In [5], the “ADCC EC50, CHO-18.2 target cells” value was 3.51 nM. Moreover, the “endocytosis derived cell toxicity EC50” value in [6] turned out to be 1.43 nM. Further, in [8], the binding result is listed as “no binding (tested: 10 µg/ml)”.

B6: Hu-6 (antibody, V domains shown)
VH: QMQLRESGPGLVKPSETLSLTCTVSNGPISSSRYYWGWIRQPPGKGLEWIGSFHYSGSTYYKPSLKSRVTISADTSKNQLSLELSSVTAADTAVYYCARLVLRYFDWLGYFDLWGRGTLVTVSS
VL: EFVMTQSPATLSLSPGERATLSCRASQSIRSNYLSWYQQKPGQAPRLLIYGASTRATAIPARFSGSGSGTDFTLTISSLQPEDFAVYYCQQDYNLPITFGQGTRLEIK
As for B6, the 50% effective concentration (EC50) in [2] was 1.5 nM; in [10] it was 2 to 20 nM. In addition, in [5], the “ADCC EC50, CHO-18.2 target cells” value came to 4.8 nM. For the same molecule, in [6], the “endocytosis derived cell toxicity EC50” value was 1.69 nM.

B7: Hu-7 (antibody, V domains shown)
VH: EVQLLESGGGLVQPGGSLRLSCAASGFTFSSYVMSWVRQAPGKGLEWVSTISGSGGSTYYADSVKDRFTISRDNSKNTLYLQMNSLRAEDTAVYYCGKPLLGGTGLWDYWGQGTLVTVSS
VL: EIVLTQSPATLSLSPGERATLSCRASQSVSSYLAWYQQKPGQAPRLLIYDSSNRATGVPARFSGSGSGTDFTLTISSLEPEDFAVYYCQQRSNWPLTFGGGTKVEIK
Turning to B7, the 50% effective concentration (EC50) in assay [2] was 1 nM; in [7] it was under 2 nM. For the same molecule, the “ADCC EC50, CHO-18.2 target cells” value in [5] was 3.52 nM. Further, the “endocytosis derived cell toxicity EC50” value in [6] is 1.65 nM. Further, in assay [8], the binding result is recorded as “no binding (tested: 10 µg/ml)”.

B8: Ms11 (antibody, V domains shown)
VH: QVQLQQSGAELVKPGASVKMSCKAFGYTFTTYSIEWMKQNHGKSLEWIGNFRPYNDDTKCNEKFKGKAKLTVEKSSSTVYLELSRLTSDDSAVYYCARGSYGNSFAYWGQGTLVTVSA
VL: DIVMTQSPSSLSVSAGEKVTMSCKSSQSLLNSGNQKNYLAWYQQKPGQPPKLLIYGASTRESGVPDRFTGSGSGTDFTLTISSVQAEDLAVYYCQNDHSYPFTFGSGTKLEIK
As for B8, the concentration giving a half-maximal response (EC50) is 20 to 100 nM in assay [1] and 3.3 nM in assay [2]. Also, the “endocytosis derived cell toxicity EC50” value in assay [3] came out at 1.3 nM. Besides, the binding result in [8] is recorded as “no binding (tested: 10 µg/ml)”.

B9: Hu-12 (antibody, V domains shown)
VH: EVRLLESGGGLVQPGGSLRLSCIASGFTFSSYVMSWVRQAPGKGLEWVSGISGSGGSTYYADSVKGRFTISRDNSKNTLYLQISSLRAEDTAVYYCTKAPTLWWFFDLWGRGTLVTVSS
VL: DIQVTQSPSFLSASVGDRVTITCRASQGIRSYLAWYQQKPGKAPKLLIYAASTLQSGVPSRFSGSGSGTEFTLTISSLLPEDFATYYCQQLNSYPLTFGGGTKVEIK
For the molecule B9, the values for the EC50 in assay [2] and in assay [7] were 1.2 nM and under 2 nM, respectively. In addition, the “ADCC EC50, CHO-18.2 target cells” value in assay [5] was determined as 2.26 nM. Also, the “endocytosis derived cell toxicity EC50” value in assay [6] was found to be 2.01 nM. For the same molecule, the binding result in [8] was “no binding (tested: 10 µg/ml)”.

B10: Ms16 (antibody, V domains shown)
VH: QVQLQQSGAELVRPGTSVKVSCKASGYAFTNYLIEWIKQRPGQGLEWIGVINPGSGGTNYNEKLKGKATLTADKSSSTAYMQLSSLTSGDSAVYFCARYVKGNALDYWGQGTSVTVSS
VL: DIVMTQSPSSLTVTAGEKVTLSCKSSQSLFNSGNQKNYLTWYQQKPGQPPKLLIYWASTRESGVPDRFTGSGSGTDFTLTISSVQAEDLAIYYCQNSYSFPLTFGAGTKLELT
In the case of B10, the half-maximal effective concentration (EC50) was under 2 nM in [11] and 0.8 nM in assay [2]. Besides, the “endocytosis derived cell toxicity EC50” value in assay [3] stood at 1 nM. Also, in [4], the binding result is reported as “no binding (tested: 10 µg/ml)”.

B11: Hu-17 (antibody, V domains shown)
VH: QVQLVQSGAEVKRPGASVKVSCRVSGYTLTALSMYWVRQAPGKGLEWMGGFDPEDGETIYAQKFQGRVTMTEDTSTGTAYMELSSLKSEDTAVYYCATRLRYFDWNYWGQGTPVTVSS
VL: DIVMTQTPLSSPVTLGQPASISCRSSQSLVHSDGNTYLSWLQQRPGQPPRLLIYKVSKRFSGVPDRFSGSGAGTDFTLKISRVEAEDVGVYYCTQGTQFPRTFGQGTKVEIK
notes: Human V regions (Trianni mice)
With B11, the binding result in assay [12] is given as “no binding (tested: 133.4 nM)”. Also, in [2], the concentration for a half-maximal effect (EC50) was 6.2 nM.
